Publication PMC6573788

What was measured:
[1] = biological target: ΔRACK1 40S ribosomal subunit (human 40S subunit without RACK1) (human (endogenous in HAP1)) (UniProt P23396); assay: native gel or EMSA
[2] = biological target: ΔRACK1 40S ribosomal subunit (human 40S subunit without RACK1) (human (endogenous in HAP1)) (UniProt P23396); assay: FRET or BRET

“native RACK1-ybbR expressed in ΔRACK1 HAP1 cells (from UniProt P63244 1-317) (natural protein)” gave a t1/2 of RACK1 on the ribosome [1] of 15 h.

B1: recombinant Asc1p-ybbR (S. cerevisiae RACK1 ortholog) (natural protein)
chain: MASNEVLVLRGTLEGHNGWVTSLATSAGQPNLLLSASRDKTLISWKLTGDDQKFGVPVRSFKGHSHIVQDCTLTADGAYALSASWDKTLRLWDVATGETYQRFVGHKSDVMSVDIDKKASMIISGSRDKTIKVWTIKGQCLATLLGHNDWVSQVRVVPNEKADDDSVTIISAGNDKMVKAWNLNQFQIEADFIGHNSNINTLTASPDGTLIASAGKDGEIMLWNLAAKKAMYTLSAQDEVFSLAFSPNRYWLAAATATGIKVFSLDPQYLVDDLRPEFAGYSKAAEPHAVSLAWSADGQTLFAGYTDNVIRVWQVMTAN
Work on B1 yielded a kobs of the fast phase at 75 nM [2] of 0.2 s⁻¹ and a kon of the fast phase [2] of 2e+06 M⁻¹ s⁻¹.
